Assay results as given in patent publication US20180017576A1 (WESTFAELISCHE WILHELMS UNIVERSITAET MUENSTER, published 2018).
Residue numbers refer to the chain shown, from its start. Numbers in names are those of the source.

T1: recombinant human S100A9 protein, wild type (human, UniProt P06702 2-114)
T1 construct: also called recS100A9; S100A9 wt
T1 sequence: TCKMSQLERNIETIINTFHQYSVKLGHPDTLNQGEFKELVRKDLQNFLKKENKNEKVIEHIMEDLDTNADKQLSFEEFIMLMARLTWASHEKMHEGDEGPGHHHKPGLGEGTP

B1: recombinant human S100A8 protein (other)
chain: LTELEKALNSIIDVYHKYSLIKGNFHAVYRDDLKKLLETECPQYIRKKGADVWFKELDINTDGAVNFQEFLILVIKMGVAAHKKSHEESHKE
notes: also called recS100A8; MRP8
B2: recS100A8/S100A9(E78A) heterodimer (other)
chain 1: B1 chain
chain 2: T1 sequence with E77A
notes: Heterodimer of S100A8 and mutated S100A9; also called recS100A8/S100A9(E78A) mutant complex
B3: recS100A8/S100A9(N69A) heterodimer (other)
chain 1: B1 chain
chain 2: T1 sequence with N68A
notes: Heterodimer of S100A8 and mutated S100A9; also called recS100A8/S100A9(N69A) mutant complex
B4: recS100A8/S100A9 wt heterodimer (other)
chain 1: B1 chain
chain 2: T1 sequence
notes: Heterodimer of one S100A8 and one S100A9 chain; Two such heterodimers associate to the (S100A8/S100A9)2 tetramer in the presence of calcium; also called recS100A8/S100A9 wild-type complex; wt S100A8/S100A9
B5: recS100A8/S100A9(N69A+E78A) heterodimer (other)
chain 1: B1 chain
chain 2: T1 sequence with N68A, E77A
notes: Heterodimer of S100A8 and doubly mutated S100A9
B6: recombinant human S100A9(N69A) (other)
chain: T1 sequence with N68A
notes: also called N69A mutant
B7: recombinant human S100A9(N69A+E78A) (other)
chain: T1 sequence with N68A, E77A
notes: also called double mutant
B8: recombinant human S100A9(E78A) (other)
chain: T1 sequence with E77A
notes: also called E78A mutant

Key:
[1] = target: T1, recombinant human S100A9 protein, wild …; test: MALDI-MS, native solvent conditions, no calcium
[2] = target: the molecule itself; test: MALDI-MS, native solvent conditions, with calcium
From the text: FIG. 2: MALDI mass spectra in the absence and presence of calcium under native solvent conditions. (a) MALDI mass spectra of recS100A8/S100A9 wt complexes in the absence (left) and presence (right) of calcium using 2,6-dihydroxy-acetophenone as matrix. The mass spectra between m/z 20,000 and 100,000 together with an inset between m/z 46,000 and 50,000 are shown. T⁺, singly charged; T²⁺, doubly charged; T³⁺, triply charged tetramer. (b) MALDI mass spectra of recS100A8/S100A9(N69A) mutant complexes in the absence (left) and presence (right) of calcium.
The oligomerization properties of the recS100A8/S100A9 mutant complexes can be determined by MALDI-MS. As shown exemplarily for the N69A mutant in FIG. 2(b), all mutant S100A9 proteins display signals for singly charged heterodimers in the absence of calcium. In contrast to the results obtained with the recS100A8/S100A9 wt proteins no heterotetramers can be observed for the mutant complexes in the presence of calcium (FIG. 2). The base peaks under these conditions exclusively represent S100A8/S100A9(N69A), S100A8/S100A9(E78A) and S100A8/S100A9(N69A+E78A) heterodimers. All MALDI-MS experiments presented here were also confirmed by ESI-MS measurements (see FIG. 3).

[3] = target: the molecule itself; test: glycerol density gradient centrifugation, 100 uM Ca2+
Protocol: (§1) FIG. 5: Density gradient centrifugation. wt and mutant recS100A8/S100A9 complexes were loaded on a glycerol gradient in the presence of either 1 mM EGTA or 100 μM Ca²⁺. After centrifugation, successive fractions of the gradients were analyzed by SDS-PAGE. […] Addition of calcium induced a marked shift for recS100A8/S100A9 wt to higher glycerol densities, whereas for the mutant complexes recS100A8/S100A9(N69A) and recS100A8/S100A9(E78A) no shift was observed.

[4] = target: B1; test: glycerol density gradient centrifugation, 1 mM EGTA
Protocol: as §1

[5] = target: B1; test: ESI-MS, native solvent conditions

Binder: B1
- binding result [1]: binds

Binder: B2
- binding result [2]: no binding

Binder: B3
- binding result [2]: no binding

Binder: B4
- binding result [3]: binds

Binder: B5
- binding result [2]: no binding

Binder: B6
- binding result [4]: binds

Binder: B7
- binding result [5]: binds

Binder: B8
- binding result [4]: binds
